In PMC5386376, “Structural insight into an evolutionarily ancient programmed cell death regulator – the crystal structure of marine sponge BHP2 bound to LB-Bak-2” (Cell Death & Disease, 2017) one finds Kd data, which are given here for two molecules.

This assay has as its target T1, BHP2 (pro-survival Bcl-2 homolog from Geodia cydonium), residues 18-200 (Geodia cydonium, UniProt Q967D2 18-200).
T1 construct: BHP2, Geodia cydonium, Uniprot Q967D2, residues 18-200; codon-optimized synthetic cDNA; also called recombinant BHP2; source: E. coli BL21 (DE3) star, purified (Glutathione Sepharose 4B, HRV 3C protease cleavage on column, Superdex S200 SEC)
T1 sequence (looked up): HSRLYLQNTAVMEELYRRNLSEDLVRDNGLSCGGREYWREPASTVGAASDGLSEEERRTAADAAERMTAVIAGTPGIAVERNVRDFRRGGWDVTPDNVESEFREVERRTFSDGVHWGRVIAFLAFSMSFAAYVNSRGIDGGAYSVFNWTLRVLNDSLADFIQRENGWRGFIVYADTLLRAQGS
Briefly: ITC; BH3 peptide (200 μM) titrated into BHP2 (20 μM), 19 injections of 2.0 μl, MicroCal iTC200, 25 °C, 25 mM HEPES pH 7.5, 150 mM NaCl; triplicate. To be noted: both partners purified.

B1: human Hrk BH3 peptide (peptide)
chain: not shown
Usually Kd stands for the constant that tells how readily two partners part at equilibrium. A higher Kd goes with lower affinity. Consider B1, for which the dissociation constant (Kd) came out at 3760 nM.

B2: LB-Bak-2 BH3 peptide (residues 62-89) (peptide, UniProt Q1RPT5 62-89, looked up)
peptide: ALASSMASEVGRRLAEFGDQVDGQFYQE
notes: LB-Bak-2, Lubomirskia baicalensis, Uniprot Q1RPT5, BH3 motif, residues 62-89; also called LB-Bak-2 BH3 motif; LB-Bak-2 BH3 domain; source: synthetic peptide (GenScript), purified to 95%
B2: binding was put at a Kd of 65 nM. Compared with the last molecule, the Kd is about 58-fold lower.
